Tested on: MS2 coat protein
Assay: apparent KD of MS2 coat protein; designed switch direction (-1 OFF switch, 1 ON switch): -1; higher = weaker reporter binding
How it was run: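 Designed RNA switches were transcribed on Illumina chips by stalled E. coli RNA polymerase and titrated with SNAP-549-labelled MS2 coat protein from 0.7 or 1.5 nM, doubling to 3 µM. Step length ran from 0.8–1.5 h at the lowest concentration to 10–20 min at the highest. The apparent KD is the median over clusters for each design, from curve-fitted normalised cluster fluorescence.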

[1] = Eterna round: R95, input ligand: microRNA oligo, concentration not stated
[2] = Eterna round: R95, input ligand: FMN 200 uM
[3] = Eterna round: R95, input ligand: none
[4] = input ligand: microRNA oligo, concentration not stated

Sequence	apparent KD of MS2 coat protein [1] [nM]	apparent KD of MS2 coat protein (input ligand: FMN 200 uM) [nM]	apparent KD of MS2 coat protein (input ligand: none) [nM]	apparent KD of MS2 coat protein [2] [nM]	apparent KD of MS2 coat protein [3] [nM]	apparent KD of MS2 coat protein [4] [nM]
CUUUUGUGAGGAUAUCAGUAGUAGAACAAUAGUACUACUACUGAGAAGGCACAUGAGGAUCACCCAUGUUCCUC [Fiskers Ex 4 Super stable 44 mod 2] (puzzle: Exclusion 4)	52.3	–	–	–	–	–
GGUGUGAGGCAGGAUAUGCAAUAAGUAAGUAAUGCAGAAGGGUCUACAUGAGGAUCACCCAUGUGUGCGGUAGA [Ex6 #2] (Eterna round: R97, puzzle: Exclusion 6)	–	202	109	–	–	–
UUCUUACAUGAGGAUCACCCAUGUCAGGAUAUCUCCGCACUGCGCUUGCGCAGUGCAUAGAGAAGGGACAGGCU [JL ViennaUCT Aner mod 4] (puzzle: Exclusion 1)	45.7	–	–	–	–	–
ACGCGCAUAGGAUAUGCCGACGGAGAACUCCAGUGACUUCAACAUGAGGAUCACCCAUGUAGAAGGAUGAUGCA [Eternabot (Original) Solution 32] (Eterna round: R97, puzzle: Exclusion 2)	–	16.8	14.8	–	–	–
GAAAACGCAGAGGAUAUAUCAGAUCAAAGCUGCAUAGAAGGCUGCACAUGAGGAUCACCCAUGUGGUCUUUAAA [jl-ex6-4.00 ViennaUCT mod] (Eterna round: R97, puzzle: Exclusion 6)	–	218	22	–	–	–
UCGGCGCGAGGAUAUACGUUUGCUCUUUUUCGUUUUUGUGUACAUGAGGAUCACCCAUGUAGAAGGCGCGCCGC [Apr-15 SS2-19] (puzzle: Exclusion 2)	17	–	–	–	–	–
GAAAAGCGAGGAUAUACAUGAGGAUCACCCAUGUAGCAAAAGCGUGCGGCGGUCGGAGGUAGAAGGCGCACAAC [Zamara] (puzzle: Exclusion 3)	51.8	–	–	81.2	100	–
AUAAUGUAAGGAUAUCAGUCGACUAGCUGCGGCUAGUCGACUGAGAAGGUACAUGAGGAUCACCCAUGUGGUUC [E4/11-A3] (Eterna round: R97, puzzle: Exclusion 4)	–	185	304	–	–	–
CAGUACUGAGGAUAUACAUGAGGAUCACCCAUGUGUCCUCUAUUAGGAAACUAGUUAUGUAGAAGGCAGUACUG [Omei Ex3 Mod of Eli 4.27 v10] (Eterna round: R97, puzzle: Exclusion 3)	–	1060	1050	–	–	–
AUUUAUGGAGGAUAUACUUGAGGAUCACCCAAGUGGAGUCCCUUUUGGGCGGUAAAUAGUAGAAGGCCGUCUUA [jl-ex3-4.48 ViennaUCT mod] (Eterna round: R97, puzzle: Exclusion 3)	–	20.9	16.3	–	–	–
CUUAGACAUGAGGAUCACCCAUGUGAGGAUAUGAAAUGAAUUAAGUAUGAAGUAUGAAUCAGAAGGCACAUAUG [Mat - Mod of Hyphema D33] (puzzle: Exclusion 1)	95.8	–	–	63	107	–
UAGAAGGUAGGAUAUACGAAUAAAUAGGGUAGAAUAAUAACACAUGAGGAUCACCCAUGUAGAAGGACCAAGAU [Mat - Exclusion 2 - Mod of my Tesla design - D30] (puzzle: Exclusion 2)	20.7	–	–	42.9	20.7	–
AGAAACAGAGGAUAUCGCGGACAGCACAUGAGGAUCACCCAUGUGAUGCUCCGCGGGCCGCGAGAAGGCUGAAAUG [Rateatge] (Eterna round: R96, puzzle: Exclusion 5)	–	–	–	–	–	11.2
GAGACUGGAGGAUAUACGAACUGGUGUAUCUGGAAGGAUCGACUUGAGGAUCACCCAAGUAGAAGGCUAGUGAA [Esgeti] (Eterna round: R97, puzzle: Exclusion 2)	–	395	40.5	–	–	–
AGCGUGUGAGGAUAUCGAUAUUGGAAGUCUAGGUCUGAGCGCGAGAAGGCACAUGAGGAUCACCCAUGUAAGGG [Teceor] (Eterna round: R97, puzzle: Exclusion 4)	–	516	375	–	–	–
AUCAGCUCGUCAGGAUAUACAUGAUAGAUCGAUUAAUUAAUUAAUUUAACAUGAGGAUCACCCAUGUAGAAGGGACGAGCUGAU [ENG2/1-B3] (Eterna round: R96, puzzle: Exclusion NG 2)	–	–	–	–	–	39.3
CUGAGGUAGCGGUCCUAUGACAUGAGGAUCACCCAUGUACCUUGCUUUGAGCUUUAUGCUCGUCUUAUGAUUCUCGG [Mat - Sensor v3 - turn-off var 1 - JL Mod - D42] (puzzle: Sensor v3, turn-off variant 1)	537	–	–	585	546	–
UUUUAGCGAGGAUAUACAUUUUUUUUAUUAUCCUCAUUAUUACAUGAGGAUCACCCAUGUAGAAGGCGCAUUUU [My Design] (puzzle: Exclusion 2)	48.9	–	–	–	–	–

Sequence	apparent KD of MS2 coat protein [1] [nM]	apparent KD of MS2 coat protein (input ligand: FMN 200 uM) [nM]	apparent KD of MS2 coat protein (input ligand: none) [nM]	apparent KD of MS2 coat protein [2] [nM]	apparent KD of MS2 coat protein [3] [nM]	apparent KD of MS2 coat protein [4] [nM]
UGUUGUCGCGCAGGAUAUGAGGAUCACCCAUAUAGAGGAUAUGAAAAGAAGGUUCUGAGGAUCACCCAGAAGGGCGGGACAACU [pwkr exNG2 2xF5 2xFMN.19] (Eterna round: R96, puzzle: Exclusion NG 2)	–	384	67.4	–	–	48.7
UAGCCAUCGUGAGAUGGCUUUCAUACAUGAGGAUCACCCAUGUAGGAUAUCGAUUGCUUUGCAGUCGAGAAGGGCAUGUAUAAU [JL ENG3 3.95] (Eterna round: R96, puzzle: Exclusion NG 3)	–	34.8	29.1	–	–	22.8
CGGGAGGGACAAGCUGUUUGCACGUCUGGUAGUGAUGCAACAUGAGGAUCACCCAUGUAUAGGGUGUGAGAGGAUGG [JR_SV3TOV2_Sub050] (Eterna round: R96, puzzle: Sensor v3, turn-off variant 2)	–	1330	338	–	–	149
AAAAAACAUGAGGAUCACCCAUGUAAGGAUAUGCUGAAAAACACGGAAAAAACGUGCAGCAGAAGGUACAAAAG [Mat - Exclusion 1 - Eli mod - D90] (Eterna round: R96, puzzle: Exclusion 1)	–	100	61.6	–	–	55
UGUACUAUGCGAGCUGACUUGCGUAGUGCAGCAAGUGAAACAUGAGGAUCACCCAUGUCCUCAUUUGCUCGUCUUAU [SL-sv3-2.01 JL mod] (puzzle: Sensor v3, turn-off variant 2)	337	–	–	23.3	22	–
GCUGCGCGAGGAUAUGCGGUUCGCGCUGUGGCCCGUGGCGCACAUGAGGAUCACCCAUGUAGAAGGCGUGCGGG [Apr-15 SS2-57] (puzzle: Exclusion 2)	9.52	–	–	–	–	–
CGCAACGCAAGAGGAUAUGUUGGACAUGAGGAUCACCCAUGUAAAAUUGGCGAAACGCAUAUCCAGUAGAAGGCUUCCGAGCAA [Eternabot solution 15] (Eterna round: R96, puzzle: Exclusion NG 2)	–	34.6	24.1	–	–	15.9
AUUAGUAAUAAGGAUAUCACUAGCCUCGGCUAGUGAGAAGGUAUUACAUGAGGAUCACCCAUGUGAUCAAUUAA [E6/3-A2] (Eterna round: R97, puzzle: Exclusion 6)	–	287	474	–	–	–
ACCAUUUCGGUGGUCUAAGAACAUGAGGAUCACCCAUGUAUCGAGGAUAUCCCAAGCAGACUAUGGGAGAAGGUGAACAGAAGG [Eternabot solution 24] (Eterna round: R96, puzzle: Exclusion NG 3)	–	40.1	41.7	–	–	25.6
CAGUACUGAGGAUAUACAUGAGGAUCACCCAUGUCAGAGAUACUAGUGAGGUCGAUUAGUAGAAGGCAGUACUG [Mat X3R4 m30] (Eterna round: R97, puzzle: Exclusion 3)	–	621	43.5	–	–	–
AAGAAUUACAUGAGGAUCACCCAUGUAGAGUGGGAAGAGAGAUAGGAUAUGAUGUGAGAAUCAUAUCAGAAGGAUCGAGACUCA [AK ExNG3-2] (Eterna round: R96, puzzle: Exclusion NG 3)	–	144	138	–	–	105
GCAGCAUAGUUUACUAGCUGUUACAUGAGGAUCACCCAUGUUCAGGAUAUGGUCUGGAUUACAGGCCAGAAGGGAACAAGCUGC [Eli exng3 - 029] (Eterna round: R96, puzzle: Exclusion NG 3)	–	–	–	–	–	7.99
UGUUAUAGAGGAUAUGCGUGAAAAUAGAUUCAUGGAAAUUUACAUGAGGAUCACCCAUGUAGAAGGCUGUGAUU [LRO-Excl2-15-mod 090 by JR] (Eterna round: R97, puzzle: Exclusion 2)	–	14.8	14.7	–	–	–
UUUAGUUCAGGAUAUGUAGAUUUUAACAUGAGGAUCACCCAUGUAGAUCCUGAAUUAACUACAGAAGGGAACAUUU [Mod of Brourd 1 - Jieux - Exclusion 5] (Eterna round: R97, puzzle: Exclusion 5)	–	77.2	22.5	–	–	–
CGUCUGUAAGGAUAUGGUUGUAUCGACAUGAGGAUCACCCAUGUGACGUGGGACUAGUGAUUAGAAGGUACGAACG [EX5 #63] (Eterna round: R97, puzzle: Exclusion 5)	–	876	672	–	–	–
AUAUAUAGUGUGAGGAUAUGCUGGUCCUUGGAUCAGCAGAAGGCACAUGAGGAUCACCCAUGUAGUUUAUUUUU [Mat - Exclusion 4 - JL Mod - D5] (puzzle: Brourd's mod of Exclusion 4)	26.2	–	–	–	–	–
AAAUAAUAGAUAAAAUAACACAUGAGGAUCACCCAUGUGCGAUGUUGAGGGUGAUACAGGCUUUUUGCUCGUCUUAU (Eterna round: R96, puzzle: Sensor v3, turn-off variant 1)	–	155	133	–	–	415
